B1: plasmin: serine protease involved in blood clotting that can activate PAR1 (protein, UniProt P00747 20-580; P00747 581-810, looked up)
Plasmin heavy chain A: EPLDDYVNTQGASLFSVTKKQLGAGSIEECAAKCEEDEEFTCRAFQYHSKEQQCVIMAENRKSSIIIRMRDVVLFEKKVYLSECKTGNGKNYRGTMSKTKNGITCQKWSSTSPHRPRFSPATHPSEGLEENYCRNPDNDPQGPWCYTTDPEKRYDYCDILECEEECMHCSGENYDGKISKTMSGLECQAWDSQSPHAHGYIPSKFPNKNLKKNYCRNPDRELRPWCFTTDPNKRWELCDIPRCTTPPPSSGPTYQCLKGTGENYRGNVAVTVSGHTCQHWSAQTPHTHNRTPENFPCKNLDENYCRNPDGKRAPWCHTTNSQVRWEYCKIPSCDSSPVSTEQLAPTAPPELTPVVQDCYHGDGQSYRGTSSTTTTGKKCQSWSSMTPHRHQKTPENYPNAGLTMNYCRNPDADKGPWCFTTDPSVRWEYCNLKKCSGTEASVVAPPPVVLLPDVETPSEEDCMFGNGKGYRGKRATTVTGTPCQDWAAQEPHRHSIFTPETNPRAGLEKNYCRNPDGDVGGPWCYTTNPRKLYDYCDVPQCAAPSFDCGKPQVEPKKCPGR
Plasmin light chain B: VVGGCVAHPHSWPWQVSLRTRFGMHFCGGTLISPEWVLTAAHCLEKSPRPSSYKVILGAHQEVNLEPHVQEIEVSRLFLEPTRKDIALLKLSSPAVITDKVIPACLPSPNYVVADRTECFITGWGETQGTFGAGLLKEAQLPVIENKVCNRYEFLNGRVQSTELCAGHLAGGTDSCQGDSGGPLVCFEKDKYILQGVTSWGLGCARPNKPGVYVRVSRFVTWIEGVMRNN
modifications: plasmin
B2: alpha-2-antiplasmin: plasmin inhibitor (protein, UniProt P08697 40-491, looked up)
Alpha-2-antiplasmin: NQEQVSPLTLLKLGNQEPGGQTALKSPPGVCSRDPTPEQTHRLARAMMAFTADLFSLVAQTSTCPNLILSPLSVALALSHLALGAQNHTLQRLQQVLHAGSGPCLPHLLSRLCQDLGPGAFRLAARMYLQKGFPIKEDFLEQSEQLFGAKPVSLTGKQEDDLANINQWVKEATEGKIQEFLSGLPEDTVLLLLNAIHFQGFWRNKFDPSLTQRDSFHLDEQFTVPVEMMQARTYPLRWFLLEQPEIQVAHFPFKNNMSFVVLVPTHFEWNVSQVLANLSWDTLHPPLVWERPTKVRLPKLYLKHQMDLVATLSQLGLQELFQAPDLRGISEQSLVVSGVQHQSTLELSEVGVEAAAATSIAMSRMSLSSFSVNRPFLFFIFEDTTGLPLFVGSVRNPNPSAPRELKEQQDSPGNKDFLQSLKGFPRGDKLFGPDLKLVPPMEEDYPQFGSPK
B3: tPA: tissue plasminogen activator; activates plasminogen to form plasmin; thrombolytic agent (protein, UniProt P00750 36-562, looked up)
Tissue-type plasminogen …: SYQVICRDEKTQMIYQQHQSWLRPVLRSNRVEYCWCNSGRAQCHSVPVKSCSEPRCFNGGTCQQALYFSDFVCQCPEGFAGKCCEIDTRATCYEDQGISYRGTWSTAESGAECTNWNSSALAQKPYSGRRPDAIRLGLGNHNYCRNPDRDSKPWCYVFKAGKYSSEFCSTPACSEGNSDCYFGNGSAYRGTHSLTESGASCLPWNSMILIGKVYTAQNPSAQALGLGKHNYCRNPDGDAKPWCHVLKNRRLTWEYCDVPSCSTCGLRQYSQPQFRIKGGLFADIASHPWQAAIFAKHRRSPGERFLCGGILISSCWILSAAHCFQERFPPHHLTVILGRTYRVVPGEEEQKFEVEKYIVHKEFDDDTYDNDIALLQLKSDSSRCAQESSVVRTVCLPPADLQLPDWTECELSGYGKHEALSPFYSERLKEAHVRLYPSSRCTSQHLLNRTVTDNMLCAGDTRSGGPQANLHDACQGDSGGPLVCLNDGRMTLVGIISWGLGCGQKDVPGVYTKVTNYLDWIRDNMRP

Test system: PAR1
Assay: PI hydrolysis in hippocampal slices
Type: cell-based, mouse
Source text: PAR1 is a seven transmembrane G-protein coupled receptor that stimulates G-alpha-q to initiate phosphatidyl inositol (PI) hydrolysis. To ensure that PAR1 is functional in regions of the brain that are subject to ischemic damage in the mouse transient focal ischemia model, we tested the ability of several activators of PAR1 to initiate PI hydrolysis (Chung et al., 1997) in the hippocampus and striatum.
Since tPA activates plasminogen to form plasmin, we tested whether exogenously applied tPA could activate endogenous plasminogen in brain slices to form plasmin and activate PAR1.

[1] = wild type hippocampus / hippocampal slices

Molecule | PI hydrolysis [1] | inhibition of tPA-induced increase in PI hydrolysis (wild type hippocampal slices) | PI hydrolysis (plasminogen-deficient mice)
B1 | increased PI hydrolysis |  | 
B2 |  | inhibited the tPA-induced increase in PI hydrolysis | 
B3 | significantly increased PI hydrolysis |  | did not increase PI hydrolysis

— patent publication US20080125498A1, “TREATMENT OF NEURODEGENERATIVE DISEASES AND CONDITIONS USING PAR1 ANTAGONISTS” (priority 2001, published 2008)
